Legend:
Assay in all cases: IEDB peptide-MHC binding, purified MHC/competitive/radioactivity; filed as Kd, often an IC50 or EC50 that approximates it; ≥ and ≤ were set here for values at or beyond the usual limits of such assays
[1] = molecular target: HLA-A*31:01
[2] = molecular target: HLA-A*68:01
[3] = molecular target: HLA-A*11:01
[4] = molecular target: HLA-A*33:01
[5] = molecular target: HLA-A*03:01
[6] = source organism: Vaccinia virus WR
[7] = source organism: Dengue virus 3 Martinique/1243/1999
[8] = source organism: SARS coronavirus Tor2
[9] = source organism: Dengue virus 2 Jamaica/1409/1983
[10] = source organism: Dengue virus 4 Philippines/H241/1956
[11] = source organism: Mammarenavirus tacaribeense

KSDAKRNSK
Kd [1, 6]: 1.85 µM | Kd [2, 6]: ≥ 77.7 µM | Kd [3, 6]: 0.887 µM | Kd [4, 6]: ≥ 77.7 µM | Kd [5, 6]: 1.15 µM

KVTEVRGYTK
Kd [3, 7]: 0.201 µM

LFCLLNRYFR
Kd [1, 8]: 0.0129 µM | Kd [2, 8]: 0.251 µM | Kd [3, 8]: 0.55 µM | Kd [4, 8]: 0.0361 µM | Kd [5, 8]: 1.24 µM

LFKRERDAIK
Kd [1, 6]: 1.43 µM | Kd [2, 6]: ≥ 35.5 µM | Kd [3, 6]: ≥ 69.8 µM | Kd [4, 6]: 8.28 µM | Kd [5, 6]: ≥ 30 µM

LFVKKMLPK
Kd [1, 6]: 1.44 µM | Kd [2, 6]: 0.47 µM | Kd [3, 6]: 0.239 µM | Kd [4, 6]: ≥ 33.2 µM | Kd [5, 6]: 1.51 µM

LIKKSDAKR
Kd [1, 6]: 0.0138 µM | Kd [2, 6]: 0.17 µM | Kd [3, 6]: 0.236 µM | Kd [4, 6]: 0.533 µM | Kd [5, 6]: ≥ 78 µM

LISGKGIGK
Kd [5, 7]: 0.722 µM

LLFQLCTFTK
Kd [1, 8]: 0.197 µM | Kd [2, 8]: 0.0663 µM | Kd [3, 8]: 0.0163 µM | Kd [4, 8]: 6.91 µM | Kd [5, 8]: 0.0152 µM

LLIWAYLSK
Kd [1, 6]: 11.2 µM | Kd [2, 6]: 0.153 µM | Kd [3, 6]: 0.101 µM | Kd [4, 6]: ≥ 37.1 µM | Kd [5, 6]: 0.0907 µM

LMCHATFTMR
Kd [1, 9]: 0.00731 µM | Kd [4, 9]: 0.089 µM

LSSKGLACYR
Kd [1, 6]: 0.00687 µM | Kd [2, 6]: 0.00475 µM | Kd [3, 6]: 0.0438 µM | Kd [4, 6]: 0.047 µM | Kd [5, 6]: 0.129 µM

MANEMGFLEK
Kd [3, 9]: 0.519 µM

MILLTMKNK
Kd [3, 7]: 1.2 µM | Kd [5, 7]: 0.0497 µM

MLVAPSYGMR
Kd [2, 10]: 0.00759 µM

MPSMKRFRR
Kd [4, 9]: 0.00672 µM

MQTMLFTMLR
Kd [1, 8]: 0.00975 µM | Kd [2, 8]: 0.0011 µM | Kd [3, 8]: 0.0112 µM | Kd [4, 8]: 0.0133 µM | Kd [5, 8]: 0.0724 µM

MSAAVKDER
Kd [1, 7]: 0.0324 µM | Kd [2, 7]: 0.0743 µM

MSYYCKSHK
Kd [1, 8]: 0.0189 µM | Kd [2, 8]: 0.0553 µM | Kd [3, 8]: 0.0789 µM | Kd [4, 8]: 1.59 µM | Kd [5, 8]: 0.0151 µM

MVTFKVPHAK
Kd [2, 10]: 0.133 µM | Kd [3, 10]: 0.251 µM | Kd [5, 10]: 0.0803 µM

NAFNCTFEY
Kd [1, 8]: 11.5 µM | Kd [2, 8]: 0.00972 µM | Kd [3, 8]: 0.0199 µM | Kd [4, 8]: 1.87 µM | Kd [5, 8]: 3.97 µM

NCKCCWFADK
Kd [1, 11]: 12.1 µM | Kd [2, 11]: ≥ 20.7 µM | Kd [3, 11]: ≥ 69.7 µM | Kd [4, 11]: ≥ 29.6 µM | Kd [5, 11]: 13.3 µM

NFPQHVITK
Kd [1, 6]: 11.6 µM | Kd [2, 6]: 1.25 µM | Kd [3, 6]: 2.05 µM | Kd [4, 6]: 8.92 µM | Kd [5, 6]: 4.02 µM

NMISRMLINR
Kd [1, 9]: 0.018 µM | Kd [2, 9]: 0.137 µM | Kd [4, 9]: 0.00706 µM

Reference: the Immune Epitope Database (IEDB)
